From patent US20210070804A1 (published 2021)

Columns and labels:
[1] = target: clone nr 1.9 (SEQ ID NO: 5), monoclonal phage; test: cross reactivity phage ELISA on coated toxin
[2] = target: clone nr 1.4 (SEQ ID NO: 3), monoclonal phage; test: cross reactivity phage ELISA on coated toxin
[3] = target: clone nr 4.10 (SEQ ID NO: 6), monoclonal phage; test: cross reactivity phage ELISA on coated toxin
[4] = target: clone nr 1.2 (SEQ ID NO: 2), monoclonal phage; test: cross reactivity phage ELISA on coated toxin
[5] = target: clone nr 1.8 (SEQ ID NO: 4), monoclonal phage; test: cross reactivity phage ELISA on coated toxin
[6] = target: clone nr 1.1 (SEQ ID NO: 1), monoclonal phage; test: cross reactivity phage ELISA on coated toxin
[7] = target: clone nr 1.1 (SEQ ID NO: 1), monoclonal phage; test: monoclonal phage ELISA on coated myotoxin II
[8] = target: clone nr 1.9 (SEQ ID NO: 5), monoclonal phage; test: phage ELISA, dilution series 1/10 to 1/1000
[9] = target: clone nr 4.10 (SEQ ID NO: 6), monoclonal phage; test: phage ELISA, dilution series 1/10 to 1/1000
[10] = target: clone nr 1.8 (SEQ ID NO: 4), monoclonal phage; test: phage ELISA, dilution series 1/10 to 1/1000
TAMRA-labeled JB006 = test: fluorescence polarization with TAMRA-labeled JB006

Measured: binding result

B1: α-cobra toxin (a-cbtx) from Naja kaouthia (other)
chain: IRCFITPDITSKDCPNGHVCYTKTWCDAFCSIRGKRVDLGCAATCPTVKTGVDIQCCSTDNCNPFPTRKRP
binds: [1] | [2] | [3] | [4] | [5] | [6]

B2: Myotoxin II from venom of Bothrops asper (other)
chain: SLFELGKMILQETGKNPAKSYGAYGCNCGVLGRGKPKDATDRCCYVHKCCYKKLTGCNPKKDRYSYSWKDKTIVCGENNSCLKELCECDKAVAICLRENLNTYNKKYRYYLKPLCKKADAC
not listed: [1] | [3] | [5] | [6]
binds: all other assays above
